Changes are numbered by the printed parent chain. Numbers in names are those of the source.
T1: IPK from Candidatus methanomethylophilus alvus (CMA) (Methanomethylophilus alvi, UniProt M9SEQ1)
T1 sequence (M9SEQ1 1-259): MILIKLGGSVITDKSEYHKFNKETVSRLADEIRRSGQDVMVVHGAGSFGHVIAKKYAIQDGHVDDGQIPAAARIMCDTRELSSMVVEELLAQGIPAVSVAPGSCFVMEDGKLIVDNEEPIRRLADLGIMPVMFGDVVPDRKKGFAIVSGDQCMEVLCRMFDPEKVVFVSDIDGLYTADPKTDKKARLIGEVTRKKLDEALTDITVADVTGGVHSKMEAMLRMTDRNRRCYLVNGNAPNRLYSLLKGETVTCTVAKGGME

B1: IPK from Candidatus methanomethylophilus alvus (CMA) (Candidatus Methanomethylophilus alvi Mx1201; I74A) (protein)
chain: T1 sequence (M9SEQ1 1-259) with I74A
B2: IPK from Candidatus methanomethylophilus alvus (CMA) (Candidatus Methanomethylophilus alvi Mx1201; T209A) (protein)
chain: T1 sequence (M9SEQ1 1-259) with T209A
B3: IPK from Candidatus methanomethylophilus alvus (CMA) (Candidatus Methanomethylophilus alvi Mx1201; T209S) (protein)
chain: T1 sequence (M9SEQ1 1-259) with T209S
B4: IPK from Candidatus methanomethylophilus alvus (CMA) (Candidatus Methanomethylophilus alvi Mx1201; I146A) (protein)
chain: T1 sequence (M9SEQ1 1-259) with I146A
B5: IPK from Candidatus methanomethylophilus alvus (CMA) (Candidatus Methanomethylophilus alvi Mx1201; V208A) (protein)
chain: T1 sequence (M9SEQ1 1-259) with V208A
B6: IPK from Candidatus methanomethylophilus alvus (CMA) (Candidatus Methanomethylophilus alvi Mx1201; I74A/V208A) (protein)
chain: T1 sequence (M9SEQ1 1-259) with I74A, V208A

Experiments:
[1] = target: T1, IPK from Candidatus methanomethylophilus alvus (CMA); assay: X-ray crystal structure, […] Å; format: binding; details: alkyl-P site, monomer A, partial occupancy with IP
[2] = substrate: O=P(O)(O)OCc1ccccc1; assay: PK-LDH coupled assay, A340; format: biochemical, Methanomethylophilus alvi; details: 2 mM ATP, 5 mM MgCl2, 25 mM Tris pH 7.8, 37 °C
[3] = substrate: C=C(C)CCOP(=O)(O)O; assay: PK-LDH coupled assay, A340; format: biochemical, Methanomethylophilus alvi; details: 2 mM ATP, 5 mM MgCl2, 25 mM Tris pH 7.8, 37 °C
[4] = substrate: Cc1ccc(COP(=O)(O)O)cc1; assay: PK-LDH coupled assay, A340; format: biochemical, Methanomethylophilus alvi; details: 2 mM ATP, 5 mM MgCl2, 25 mM Tris pH 7.8, 37 °C

Molecule	X-ray crystal structure, 2.5 Å [1]	Km [2]	kcat [2]	kcat/Km [2]	Km [3]	kcat [3]	kcat/Km [3]	Km [4]	kcat [4]	kcat/Km [4]
C=C(C)CCOP(=O)(O)OP(=O)(O)O [IPP]	electron density for both pairs of reagents (IP/ATP and IPP/ADP) can be modeled									
B1		110 ± 30 µM	0.41 ± 0.02 s⁻¹	4000 M⁻¹ s⁻¹	220 ± 20 µM	42 ± 2 s⁻¹	190000 M⁻¹ s⁻¹	80 ± 20 µM	1.05 ± 0.07 s⁻¹	13000 M⁻¹ s⁻¹
B2					50 ± 20 µM	0.038 ± 0.002 s⁻¹	800 M⁻¹ s⁻¹			
B3					37 ± 8 µM	7.2 ± 0.3 s⁻¹	200000 M⁻¹ s⁻¹			
B4					160 ± 20 µM	68 ± 2 s⁻¹	430000 M⁻¹ s⁻¹			
B5					75 ± 10 µM	5.4 ± 0.1 s⁻¹	72000 M⁻¹ s⁻¹			
B6					750 ± 80 µM	4.9 ± 0.2 s⁻¹	6500 M⁻¹ s⁻¹			
